Values joined by “and” are separate entries in the source; they are usually repeats but may differ in a detail not shown here. Equal values may be shown once.
System: NPR2
Assay: cGMP catchpoint assay of NPR2 variants in transfected HEK293 cells treated with 20 nM CNP
Format: cell-based
Design: key to Lable: loss-of-function (LoF); Gain-of-function (GoF)
Settings: for average phenotype: cGMP normalized to RedLuciferase and to WT = 1, HEK293, 20 nM CNP, 0.4 nM IBMX, at least 3 repeat experiments with 4 replicates each; for Lable: high-confidence variant class
Procedure, shortened: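 HEK293 cells transfected with NPR2 variant constructs; 3 days later stimulated with 20 nM CNP plus […] IBMX in serum-free DMEM. cGMP by competitive ELISA against a standard curve, normalized to RedLuc transfection control and to WT = 1; mean of ≥3 experiments, 4 replicates each.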

Row | Molecule | average phenotype | Lable
1 | Glu389Asp: NPR2 protein-altering variant, expression construct transfected into HEK293 cells (protein) RNLTLAVVLPEHNLSYAWAWPRVGPAVALAVEALGRALPVDLRFVSSELEGACSEYLAPLSAVDLKLYHDPDLLLGPGCVYPAASVARFASHWRLPLLTAGAVASGFSAKNDHYRTLVRTGPSAPKLGEFVVTLHGHFNWTARAALLYLDARTDDRPHYFTIEGVFEALQGSNLSVQHQVYAREPGGPEQATHFIRANGRIVYICGPLEMLHEILLQAQRENLTNGDYVFFYLDVFGESLRAGPTRATGRPWQDNRTREQAQALREAFQTVLVITYREPPNPEYQEFQNRLLIRAREDFGVELGPSLMNLIAGCFYDGILLYAEVLNETIQEGGTREDGLRIVEKMQGRRYHGVTGLVVMDKNNDRDTDFVLWAMGDLDSGDFQPAAHYSGAEKQIWWTGRPIPWVKGAPPSDNPPCAFDLDDPSCDKTPLSTLAIVALGTGITFIMFGVSSFLIFRKLMLEKELASMLWRIRWEELQFGNSERYHKGAGSRLTLSLRGSSYGSLMTAHGKYQIFANTGHFKGNVVAIKHVNKKRIELTRQVLFELKHMRDVQFNHLTRFIGACIDPPNICIVTEYCPRGSLQDILENDSINLDWMFRYSLINDLVKGMAFLHNSIISSHGSLKSSNCVVDSRFVLKITDYGLASFRSTAEPDDSHALYAKKLWTAPELLSGNPLPTTGMQKADVYSFGIILQEIALRSGPFYLEGLDLSPKEIVQKVRNGQRPYFRPSIDRTQLNEELVLLMERCWAQDPAERPDFGQIKGFIRRFNKEGGTSILDNLLLRMEQYANNLEKLVEERTQAYLEEKRKAEALLYQILPHSVAEQLKRGETVQAEAFDSVTIYFSDIVGFTALSAESTPMQVVTLLNDLYTCFDAIIDNFDVYKVETIGDAYMVVSGLPGRNGQRHAPEIARMALALLDAVSSFRIRHRPHDQLRLRIGVHTGPVCAGVVGLKMPRYCLFGDTVNTASRMESNGQALKIHVSSTTKDALDELGCFQLELRGDVEMKGKGKMRTYWLLGERKGPPGLL | 0.07079 | LoF
2 | Gly209Val: NPR2 protein-altering variant, expression construct transfected into HEK293 cells (protein) RNLTLAVVLPEHNLSYAWAWPRVGPAVALAVEALGRALPVDLRFVSSELEGACSEYLAPLSAVDLKLYHDPDLLLGPGCVYPAASVARFASHWRLPLLTAGAVASGFSAKNDHYRTLVRTGPSAPKLGEFVVTLHGHFNWTARAALLYLDARTDDRPHYFTIEGVFEALQGSNLSVQHQVYAREPGVPEQATHFIRANGRIVYICGPLEMLHEILLQAQRENLTNGDYVFFYLDVFGESLRAGPTRATGRPWQDNRTREQAQALREAFQTVLVITYREPPNPEYQEFQNRLLIRAREDFGVELGPSLMNLIAGCFYDGILLYAEVLNETIQEGGTREDGLRIVEKMQGRRYHGVTGLVVMDKNNDRETDFVLWAMGDLDSGDFQPAAHYSGAEKQIWWTGRPIPWVKGAPPSDNPPCAFDLDDPSCDKTPLSTLAIVALGTGITFIMFGVSSFLIFRKLMLEKELASMLWRIRWEELQFGNSERYHKGAGSRLTLSLRGSSYGSLMTAHGKYQIFANTGHFKGNVVAIKHVNKKRIELTRQVLFELKHMRDVQFNHLTRFIGACIDPPNICIVTEYCPRGSLQDILENDSINLDWMFRYSLINDLVKGMAFLHNSIISSHGSLKSSNCVVDSRFVLKITDYGLASFRSTAEPDDSHALYAKKLWTAPELLSGNPLPTTGMQKADVYSFGIILQEIALRSGPFYLEGLDLSPKEIVQKVRNGQRPYFRPSIDRTQLNEELVLLMERCWAQDPAERPDFGQIKGFIRRFNKEGGTSILDNLLLRMEQYANNLEKLVEERTQAYLEEKRKAEALLYQILPHSVAEQLKRGETVQAEAFDSVTIYFSDIVGFTALSAESTPMQVVTLLNDLYTCFDAIIDNFDVYKVETIGDAYMVVSGLPGRNGQRHAPEIARMALALLDAVSSFRIRHRPHDQLRLRIGVHTGPVCAGVVGLKMPRYCLFGDTVNTASRMESNGQALKIHVSSTTKDALDELGCFQLELRGDVEMKGKGKMRTYWLLGERKGPPGLL | 0.08861 | LoF
3 | Thr861Ile: NPR2 protein-altering variant, expression construct transfected into HEK293 cells (protein) RNLTLAVVLPEHNLSYAWAWPRVGPAVALAVEALGRALPVDLRFVSSELEGACSEYLAPLSAVDLKLYHDPDLLLGPGCVYPAASVARFASHWRLPLLTAGAVASGFSAKNDHYRTLVRTGPSAPKLGEFVVTLHGHFNWTARAALLYLDARTDDRPHYFTIEGVFEALQGSNLSVQHQVYAREPGGPEQATHFIRANGRIVYICGPLEMLHEILLQAQRENLTNGDYVFFYLDVFGESLRAGPTRATGRPWQDNRTREQAQALREAFQTVLVITYREPPNPEYQEFQNRLLIRAREDFGVELGPSLMNLIAGCFYDGILLYAEVLNETIQEGGTREDGLRIVEKMQGRRYHGVTGLVVMDKNNDRETDFVLWAMGDLDSGDFQPAAHYSGAEKQIWWTGRPIPWVKGAPPSDNPPCAFDLDDPSCDKTPLSTLAIVALGTGITFIMFGVSSFLIFRKLMLEKELASMLWRIRWEELQFGNSERYHKGAGSRLTLSLRGSSYGSLMTAHGKYQIFANTGHFKGNVVAIKHVNKKRIELTRQVLFELKHMRDVQFNHLTRFIGACIDPPNICIVTEYCPRGSLQDILENDSINLDWMFRYSLINDLVKGMAFLHNSIISSHGSLKSSNCVVDSRFVLKITDYGLASFRSTAEPDDSHALYAKKLWTAPELLSGNPLPTTGMQKADVYSFGIILQEIALRSGPFYLEGLDLSPKEIVQKVRNGQRPYFRPSIDRTQLNEELVLLMERCWAQDPAERPDFGQIKGFIRRFNKEGGTSILDNLLLRMEQYANNLEKLVEERTQAYLEEKRKAEALLYQILPHSVAEQLKRGETVQAEAFDSVIIYFSDIVGFTALSAESTPMQVVTLLNDLYTCFDAIIDNFDVYKVETIGDAYMVVSGLPGRNGQRHAPEIARMALALLDAVSSFRIRHRPHDQLRLRIGVHTGPVCAGVVGLKMPRYCLFGDTVNTASRMESNGQALKIHVSSTTKDALDELGCFQLELRGDVEMKGKGKMRTYWLLGERKGPPGLL | 0.07978 and 0.01124 | LoF
4 | Pro301Ser: NPR2 protein-altering variant, expression construct transfected into HEK293 cells (protein) RNLTLAVVLPEHNLSYAWAWPRVGPAVALAVEALGRALPVDLRFVSSELEGACSEYLAPLSAVDLKLYHDPDLLLGPGCVYPAASVARFASHWRLPLLTAGAVASGFSAKNDHYRTLVRTGPSAPKLGEFVVTLHGHFNWTARAALLYLDARTDDRPHYFTIEGVFEALQGSNLSVQHQVYAREPGGPEQATHFIRANGRIVYICGPLEMLHEILLQAQRENLTNGDYVFFYLDVFGESLRAGPTRATGRPWQDNRTREQAQALREAFQTVLVITYRESPNPEYQEFQNRLLIRAREDFGVELGPSLMNLIAGCFYDGILLYAEVLNETIQEGGTREDGLRIVEKMQGRRYHGVTGLVVMDKNNDRETDFVLWAMGDLDSGDFQPAAHYSGAEKQIWWTGRPIPWVKGAPPSDNPPCAFDLDDPSCDKTPLSTLAIVALGTGITFIMFGVSSFLIFRKLMLEKELASMLWRIRWEELQFGNSERYHKGAGSRLTLSLRGSSYGSLMTAHGKYQIFANTGHFKGNVVAIKHVNKKRIELTRQVLFELKHMRDVQFNHLTRFIGACIDPPNICIVTEYCPRGSLQDILENDSINLDWMFRYSLINDLVKGMAFLHNSIISSHGSLKSSNCVVDSRFVLKITDYGLASFRSTAEPDDSHALYAKKLWTAPELLSGNPLPTTGMQKADVYSFGIILQEIALRSGPFYLEGLDLSPKEIVQKVRNGQRPYFRPSIDRTQLNEELVLLMERCWAQDPAERPDFGQIKGFIRRFNKEGGTSILDNLLLRMEQYANNLEKLVEERTQAYLEEKRKAEALLYQILPHSVAEQLKRGETVQAEAFDSVTIYFSDIVGFTALSAESTPMQVVTLLNDLYTCFDAIIDNFDVYKVETIGDAYMVVSGLPGRNGQRHAPEIARMALALLDAVSSFRIRHRPHDQLRLRIGVHTGPVCAGVVGLKMPRYCLFGDTVNTASRMESNGQALKIHVSSTTKDALDELGCFQLELRGDVEMKGKGKMRTYWLLGERKGPPGLL | 0.08478 | LoF
5 | Leu1009Val: NPR2 protein-altering variant, expression construct transfected into HEK293 cells (protein) RNLTLAVVLPEHNLSYAWAWPRVGPAVALAVEALGRALPVDLRFVSSELEGACSEYLAPLSAVDLKLYHDPDLLLGPGCVYPAASVARFASHWRLPLLTAGAVASGFSAKNDHYRTLVRTGPSAPKLGEFVVTLHGHFNWTARAALLYLDARTDDRPHYFTIEGVFEALQGSNLSVQHQVYAREPGGPEQATHFIRANGRIVYICGPLEMLHEILLQAQRENLTNGDYVFFYLDVFGESLRAGPTRATGRPWQDNRTREQAQALREAFQTVLVITYREPPNPEYQEFQNRLLIRAREDFGVELGPSLMNLIAGCFYDGILLYAEVLNETIQEGGTREDGLRIVEKMQGRRYHGVTGLVVMDKNNDRETDFVLWAMGDLDSGDFQPAAHYSGAEKQIWWTGRPIPWVKGAPPSDNPPCAFDLDDPSCDKTPLSTLAIVALGTGITFIMFGVSSFLIFRKLMLEKELASMLWRIRWEELQFGNSERYHKGAGSRLTLSLRGSSYGSLMTAHGKYQIFANTGHFKGNVVAIKHVNKKRIELTRQVLFELKHMRDVQFNHLTRFIGACIDPPNICIVTEYCPRGSLQDILENDSINLDWMFRYSLINDLVKGMAFLHNSIISSHGSLKSSNCVVDSRFVLKITDYGLASFRSTAEPDDSHALYAKKLWTAPELLSGNPLPTTGMQKADVYSFGIILQEIALRSGPFYLEGLDLSPKEIVQKVRNGQRPYFRPSIDRTQLNEELVLLMERCWAQDPAERPDFGQIKGFIRRFNKEGGTSILDNLLLRMEQYANNLEKLVEERTQAYLEEKRKAEALLYQILPHSVAEQLKRGETVQAEAFDSVTIYFSDIVGFTALSAESTPMQVVTLLNDLYTCFDAIIDNFDVYKVETIGDAYMVVSGLPGRNGQRHAPEIARMALALLDAVSSFRIRHRPHDQLRLRIGVHTGPVCAGVVGLKMPRYCLFGDTVNTASRMESNGQALKIHVSSTTKDAVDELGCFQLELRGDVEMKGKGKMRTYWLLGERKGPPGLL | 0.0847 | LoF

From US20250032576A1, “CNP Therapy” (BIOMARIN PHARMACEUTICAL INC., priority 2021, published 2025)
